Reference: paper PMC10673124

Biological target: Elastase (UniProt P00772)
Chain of UniProt P00772 (P00772 27-266): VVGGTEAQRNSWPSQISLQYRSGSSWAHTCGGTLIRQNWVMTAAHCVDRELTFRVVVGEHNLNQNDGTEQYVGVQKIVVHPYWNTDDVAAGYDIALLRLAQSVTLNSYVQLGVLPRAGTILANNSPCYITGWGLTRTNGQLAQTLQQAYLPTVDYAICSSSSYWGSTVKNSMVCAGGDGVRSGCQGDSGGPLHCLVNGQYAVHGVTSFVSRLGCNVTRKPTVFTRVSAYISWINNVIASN

elastase inhibitory activity (%), peptide at 10-20 mM, substrate N-Succinyle-Ala-Ala-Ala-pNA: 76.3%
Binder: VGVPGVGVPGVGVPGV [S1 (…)]
